From US20130039916A1 (Merck Sharp & Dohme, published 2013)
Values joined by “and” are separate entries in the source; they are usually repeats but may differ in a detail not shown here. Identical values can stand only once.

T1: "Non-linked" human IL-23 (human p40 coexpressed in 293T cells with human p19:FLAG-tag peptide) (human, UniProt P29460 23-328)
T1 sequence 1: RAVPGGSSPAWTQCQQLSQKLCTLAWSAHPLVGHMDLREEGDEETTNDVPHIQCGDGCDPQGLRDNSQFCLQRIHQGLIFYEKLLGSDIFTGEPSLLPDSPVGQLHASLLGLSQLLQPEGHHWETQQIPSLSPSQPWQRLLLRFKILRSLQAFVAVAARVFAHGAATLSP
T1 sequence 2: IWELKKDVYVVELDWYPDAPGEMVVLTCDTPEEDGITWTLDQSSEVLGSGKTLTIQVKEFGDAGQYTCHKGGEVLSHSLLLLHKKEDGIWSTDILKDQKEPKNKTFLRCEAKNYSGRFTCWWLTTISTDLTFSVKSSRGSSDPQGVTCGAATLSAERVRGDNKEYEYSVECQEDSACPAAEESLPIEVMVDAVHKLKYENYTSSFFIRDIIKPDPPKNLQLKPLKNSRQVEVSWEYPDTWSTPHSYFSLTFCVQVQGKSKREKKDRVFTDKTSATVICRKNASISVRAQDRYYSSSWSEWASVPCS

T2: non-tagged, non-linked native human IL-23p19/p40 coexpressed in SF9 cells (eBioscience CAT No. 34-8239) (human, UniProt P29460 23-328)
T2 sequence 1: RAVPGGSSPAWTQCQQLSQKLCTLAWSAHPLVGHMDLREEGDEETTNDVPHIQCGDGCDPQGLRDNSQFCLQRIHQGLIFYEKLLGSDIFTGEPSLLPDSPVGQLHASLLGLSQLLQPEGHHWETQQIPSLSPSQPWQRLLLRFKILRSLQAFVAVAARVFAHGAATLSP
T2 sequence 2: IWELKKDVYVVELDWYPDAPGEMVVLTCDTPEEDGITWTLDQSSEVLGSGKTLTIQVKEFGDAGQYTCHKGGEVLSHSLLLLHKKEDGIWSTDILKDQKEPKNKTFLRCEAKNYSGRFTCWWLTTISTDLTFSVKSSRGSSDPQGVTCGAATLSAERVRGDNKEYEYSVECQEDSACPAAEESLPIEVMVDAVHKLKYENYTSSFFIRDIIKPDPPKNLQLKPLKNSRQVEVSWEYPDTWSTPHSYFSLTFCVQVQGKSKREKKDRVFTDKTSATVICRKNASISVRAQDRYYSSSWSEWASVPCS

T3: human IL-23 (form not stated) (human, UniProt P29460 23-328)
T3 sequence 1: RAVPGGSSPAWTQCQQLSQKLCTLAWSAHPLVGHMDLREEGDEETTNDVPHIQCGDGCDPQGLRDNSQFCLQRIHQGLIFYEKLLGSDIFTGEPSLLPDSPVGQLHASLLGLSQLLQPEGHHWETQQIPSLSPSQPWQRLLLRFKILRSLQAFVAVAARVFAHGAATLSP
T3 sequence 2: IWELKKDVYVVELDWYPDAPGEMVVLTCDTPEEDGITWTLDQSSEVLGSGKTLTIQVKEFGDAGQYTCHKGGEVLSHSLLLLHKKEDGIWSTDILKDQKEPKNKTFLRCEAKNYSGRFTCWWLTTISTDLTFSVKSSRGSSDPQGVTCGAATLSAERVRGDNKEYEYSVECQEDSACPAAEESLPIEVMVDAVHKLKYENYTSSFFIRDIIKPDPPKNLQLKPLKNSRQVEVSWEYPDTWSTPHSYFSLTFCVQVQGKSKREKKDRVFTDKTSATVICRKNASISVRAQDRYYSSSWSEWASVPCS

T4: "N222Q" human IL-23 (elastikine sequence with Asn222 to Gln in the p40 subunit, expressed in SF9 cells) (human, UniProt P29460 23-328)
T4 chain 1: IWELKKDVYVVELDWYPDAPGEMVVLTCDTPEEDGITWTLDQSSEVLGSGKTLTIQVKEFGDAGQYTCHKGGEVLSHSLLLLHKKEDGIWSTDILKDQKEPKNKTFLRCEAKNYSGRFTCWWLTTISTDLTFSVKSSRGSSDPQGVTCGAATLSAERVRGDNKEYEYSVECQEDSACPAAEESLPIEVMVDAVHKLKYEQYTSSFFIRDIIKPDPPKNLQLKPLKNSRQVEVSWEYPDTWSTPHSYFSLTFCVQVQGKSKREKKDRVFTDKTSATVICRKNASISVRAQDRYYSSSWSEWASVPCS
T4 chain 2: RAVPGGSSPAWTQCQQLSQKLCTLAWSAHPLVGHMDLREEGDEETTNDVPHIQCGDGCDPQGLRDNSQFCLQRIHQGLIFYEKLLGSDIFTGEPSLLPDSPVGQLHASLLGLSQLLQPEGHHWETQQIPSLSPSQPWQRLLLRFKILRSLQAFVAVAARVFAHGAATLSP

B1: humanized anti-human IL-23p19 antibody 7G10 (antibody, human IgG1, kappa, V domains shown)
VH: QVQLVQSGAEVKKPGASVKVSCKASGYTFTSNVMHWVRQAPGQGLEWMGYINPYNDGTKYNEKFKGRVTMTTDTSTSTAYMELRSLRSDDTAVYYCARNWDVAYWGQGTLVTVSS
VL: DIQMTQSPSSLSASVGDRVTITCRASQSISDYLHWYQQKPGKAPKLLIYYASQSISGVPSRFSGSGSGTDFTLTISSLQPEDFATYYCQNGHSFPFTFGQGTKVEIKR
notes: Full-length humanized antibody, human IgG1 / kappa; also called hu7G10; hum7G10
B2: humanized antibody 17G8 with R98A substitution in the heavy chain of SEQ ID NO: 129 (antibody, V domains shown)
VH: QVQLVQSGAEVKKPGASVKVSCKASGYTFTSYGIKWVRQAPGQGLEWMGEIFPRSGQTIYNEKFKGRVTMTTDTSTSTAYMELRSLRSDDTAVYYCAANWDLDYWGQGTLVTVSS
VL: DIQMTQSPSSLSASVGDRVTITCRASQSISDYLHWYQQKPGKAPKLLIYYASQSISGVPSRFSGSGSGTDFTLTISSLQPEDFATYYCQNGHSFPYTFGQGTKVEIKR
B3: humanized anti-human IL-23p19 antibody 6H12 (antibody, human IgG1, kappa, V domains shown)
VH: QVQLVQSGAEVKKPGASVKVSCKASGYTFNRYLIHWVRQAPGQGLEWMGYINPNNAGTNYNEKFKGRVTMTTDTSTSTAYMELRSLRSDDTAVYYCARNWDQAYWGQGTLVTVSS
VL: DIQMTQSPSSLSASVGDRVTITCRASQSISDYLHWYQQKPGKAPKLLIYYTSQSISGVPSRFSGSGSGTDFTLTISSLQPEDFATYYCQNGHSFPFTFGQGTKVEIKR
notes: Full-length humanized antibody, human IgG1 / kappa; also called hu6H12; hum6H12

Tests used:
[1] = target: T1, "Non-linked" human IL-23 (human p40 …); assay: cell-based or functional assay
[2] = target: T2, non-tagged, non-linked native human …; assay: cell-based or functional assay
[3] = target: T5, "Elastikine" human IL-23 (single chain FLAG-tag:GLU-tag:human p40:elasti-linker:human p19, expressed in 293T … (human, UniProt P29460 23-328)); assay: cell-based or functional assay
[4] = target: T2, non-tagged, non-linked native human …; assay: BIAcore SPR, antibody immobilised on CM5 chip, IL-23 in solution
Procedure: (§1) BIAcore determinations are performed essentially as described at Example 4 of U.S. Patent Application Publication No. 2007/0048315. Briefly, ligands (anti-IL-23 mAbs) are immobilized on a BIAcore CM5 sensor chip using standard amine-coupling procedure. IL-23 (various forms) is diluted in PBS to produce various concentrations. Kinetic constants for the various interactions are determined using BIAevaluation software 3.1. The Kd is determined using the calculated dissociation and association rate constants. In certain experiments, proteins are used at the following concentrations: anti-IL-23 mAb hu7G10 in PBS at 0.33 mg/mL; anti-IL-23 mAb hu6H12 in PBS at 0.2 mg/mL; bac-wt human IL-23 in PBS at 0.30 mg/mL; eBioscience human IL-23 in PBS at 0.10 mg/mL; N222Q human IL-23 in PBS at 0.33 mg/mL.

[5] = target: T3, human IL-23 (form not stated); assay: cell-based or functional assay
[6] = target: T5, "Elastikine" human IL-23 (single chain …); assay: KinExA, solution equilibrium
Procedure: The equilibrium dissociation constant (Kd) for anti human IL-23 antibodies is determined using the KinExA 3000 instrument. Sapidyne Instruments Inc., Boise Id., USA KinExA uses the principle of the Kinetic Exclusion Assay method based on measuring the concentration of uncomplexed antibody in a mixture of antibody, antigen and antibody-antigen complex. The concentration of free antibody is measured by exposing the mixture to a solid-phase immobilized antigen for a very brief period of time. In practice, this is accomplished by flowing the solution phase antigen-antibody mixture past antigen-coated particles trapped in a flow cell. Data generated by the instrument are analyzed using custom software. Equilibrium constants are calculated using a mathematical theory based on the following assumptions:
98 micron PMMA particles (Sapidyne, Cat No. 440198) are coated with biotinylated rhIL-23 according to Sapidyne “Protocol for coating PMMA particles with biotinylated ligands having short or nonexistent linker arms”. To make biotinylated rhIL-23, EZ-link TFP PEO-biotin (Pierce, Cat. No. 21219) is used according to manufacturer's recommendations (Pierce bulletin 0874). Experimental procedures are done according to the KinExA 3000 manual.
KinExA experiments are performed essentially as described at Example 3 of U.S. Patent Application Publication No. 2007/0048315.

[7] = target: T4, "N222Q" human IL-23 (elastikine …); assay: BIAcore SPR, antibody immobilised on CM5 chip, IL-23 in solution
Procedure: as §1

Row | Binder | IC50 (pM), blocking of Ba/F3 cell proliferation [1] | IC50 (pM), blocking of Ba/F3 cell proliferation [2] | IC50 (pM), blocking of Ba/F3 cell proliferation [3] | Kd [4] | fold decrease of IC50 in the Ba/F3 proliferation bioassay against the heavy chain of SEQ ID NO: 129 without R98A [5] | Kd [6] | Kd [7]
1 | B1 | 10000 pM | 7800 pM | 29 pM | 3.2 nM and 9 nM | – | – | –
2 | B2 | – | – | – | – | > 1000 fold | – | –
3 | B3 | 4000 pM | 3200 pM | 27 pM | 4.1 nM | – | 0.028 nM and 0.036 nM | 0.5 nM
